Laboratory results taken from patent US7939057B2, “Methods and compositions for modulating the mobilization of stem cells” (Mount Sinai School of Medicine, priority 2006, dated 2011).

Key:
CXCL12 = CXCL12 protein by ELISA in BMEF and bone extracts after G-CSF; assay type: in vivo, mice
Method: CXCL12 ELISA was done exactly as described (Petit, I., Szyper-Kravitz, M., Nagler, A., Lahav, M., Peled, A., Habler, L., Ponomaryov, T., Taichman, R. S., Arenzana-Seisdedos, F., Fujii, N., et al. (2002). G-CSF induces stem cell mobilization by decreasing bone marrow SDF-1 and up-regulating CXCR4. Nat Immunol 3, 687-694). Mouse plasma osteocalcin was measured using ELISA kit (Biomedical Technologies Inc., Stoughton, Mass.) according to manufacturer's recommendation.
BMEF was obtained by flushing two femurs with one ml of ice-cold PBS, and the supernatant was harvested after 25 strokes of gentle pipetting followed by centrifugation at 400 g for 5 min. Bone protein extraction was performed as described (Pfeilschifter, J., Laukhuf, F., Muller-Beckmann, B., Blum, W. F., Pfister, T., and Ziegler, R. (1995). Parathyroid hormone increases the concentration of insulin-like growth factor-I and transforming growth factor beta I in rat bone. J Clin Invest 96, 767-774). After extraction, the samples were dialyzed extensively against cold PBS (pH 7.4) for 72 h with a dialysis cassette of 3500 MWCO (Pierce). Volume of dialyzed extracts was measured, centrifuged at 16,000 g for 15 min at 4° C., and the supernatants stored at −80° C. CXCL12 levels in BMEF and bone extracts were determined by ELISA.

NE = NE content in heart and bone after G-CSF (HPLC); assay type: in vivo, C57BL/6 mice
Method: Mice were sacrificed and hearts were rapidly removed, weighed, frozen in liquid nitrogen. Tissues were homogenized in HPLC solvent (0.1M TCA, which contains 10^−2 M sodium acetate, 10^−4 M EDTA and 10.5% methanol, pH 3.8). Hindlimb long bones were harvested, weighted, frozen in liquid nitrogen. Pooled bones were crushed using a bessman tissue pulverizer (Spectrum Laboratories) pre-chilled in a liquid nitrogen bath. Pulverized tissues were homogenized (620 mg/ml) in 0.4N HClO4 containing 0.84 mg/mL EDTA and 12.5 μL of 4% sodium pyrosulfite solution. Bone catecholamines were extracted using solid Al203 and then desorbed from the Al203 using 0.1 N acetic acid. NE levels were determined by HPLC at the Neurochemistry Core Lab, Vanderbilt University's Center for Molecular Neuroscience Research (Nashville, Tenn.).

B1: G-CSF: recombinant human G-CSF (Filgrastim, Amgen), hematopoietic cytokine used to elicit HSPC mobilization (protein, UniProt P09919 31-207, looked up)
Granulocyte …: TPLGPASSLPQSFLLKCLEQVRKIQGDGAALQEKLVSECATYKLCHPEELVLLGHSLGIPWAPLSSCPSQALQLAGCLSQLHSGLFLYQGLLQALEGISPELGPTLDTLQLDVADFATTIWQQMEELGMAPALQPTQGAMPAFASAFQRRAGGVLVASHLQSFLEVSYRVLRHLAQP
modifications: filgrastim
notes: recombinant human G-CSF (Filgrastim, Amgen), hematopoietic cytokine used to elicit HSPC mobilization
CXCL12 protein in BMEF (CXCL12; Cgt+/+ and +/− mice after G-CSF injection): greatly reduced
CXCL12 protein in BMEF (CXCL12; Cgt−/− mice after G-CSF): significantly reduced
CXCL12 protein levels in bone (CXCL12; Cgt−/− mice following G-CSF): no reduction
CXCL12 in bone protein extracts (CXCL12; Dbh+/− mice following G-CSF): reduced
CXCL12 levels in bone protein extracts (CXCL12; Dbh−/− animals following G-CSF): maintained
CXCL12 protein in bone (CXCL12; normal littermate mice following G-CSF): decreased
bone NE levels (NE; 3 h after G-CSF administration (250 μg/kg s.c.)): dramatic reduction
cardiac NE levels (NE; single dose of G-CSF (250 μg/kg s.c.)): slightly reduced
